Source: publication PMC11552096 (Journal of molecular biology, 2020)
Changes are numbered by the printed parent chain. Names may count otherwise.

B1: apo-SUN2_(500-717) (domain or fragment, human, UniProt Q9UH99 500-717, looked up)
chain: QGKSAREAAASLSLTLQKEGVIGVTEEQVHHIVKQALQRYSEDRIGLADYALESGGASVISTRCSETYETKTALLSLFGIPLWYHSQSPRVILQPDVHPGNCWAFQGPQGFAVVRLSARIRPTAVTLEHVPKALSPNSTISSAPKDFAIFGFDEDLQQEGTLLGKFTYDQDGEPIQTFHFQAPTMATYQVVELRILTNWGHPEYTCIYRFRVHGEPAH
B2: hsSUN2_(522-717), wild type, as crystallised with KASH4 (domain or fragment, human, UniProt Q9UH99 522-717, looked up)
chain: GVTEEQVHHIVKQALQRYSEDRIGLADYALESGGASVISTRCSETYETKTALLSLFGIPLWYHSQSPRVILQPDVHPGNCWAFQGPQGFAVVRLSARIRPTAVTLEHVPKALSPNSTISSAPKDFAIFGFDEDLQQEGTLLGKFTYDQDGEPIQTFHFQAPTMATYQVVELRILTNWGHPEYTCIYRFRVHGEPAH
B3: hsSUN2_(522-717) with 4 surface point mutations Q534D, T683G, M684R, A685G (domain or fragment, human, UniProt Q9UH99 522-717, looked up)
chain: B2 chain with Q13D, T162G, M163R, A164G

Molecular target: the molecule itself
Experiment: crystal structure

Stoichiometry N, 3:
B1
B2
B3
